Results as given in paper PMC5773378 (Immunity, 2017).
Read-outs that look alike come from different tables or passages of the source. Values belong to the binder of their own block, whether it stands above or below them.

B8: human IL-12p40, the p40 subunit of IL-23 (natural protein, UniProt P29460 23-328, looked up)
chain: IWELKKDVYVVELDWYPDAPGEMVVLTCDTPEEDGITWTLDQSSEVLGSGKTLTIQVKEFGDAGQYTCHKGGEVLSHSLLLLHKKEDGIWSTDILKDQKEPKNKTFLRCEAKNYSGRFTCWWLTTISTDLTFSVKSSRGSSDPQGVTCGAATLSAERVRGDNKEYEYSVECQEDSACPAAEESLPIEVMVDAVHKLKYENYTSSFFIRDIIKPDPPKNLQLKPLKNSRQVEVSWEYPDTWSTPHSYFSLTFCVQVQGKSKREKKDRVFTDKTSATVICRKNASISVRAQDRYYSSSWSEWASVPCS

Assays:
[1] = target: T1, human interleukin-23 (IL-23), heterodimer of IL-23p19 and IL-12p40 (human, UniProt Q9NPF7;P29460); assay: cross-linking
[2] = target: T1, human interleukin-23 (IL-23), …; assay: crystal structure
[3] = target: T2, human IL-12p40, the p40 subunit of IL-23 (human, UniProt P29460); assay: crystal structure
[4] = target: T1, human interleukin-23 (IL-23), …; assay: crystal structure; remark: listed apart in the source
[5] = target: T2, human IL-12p40, the p40 subunit of IL-23; assay: crystal structure; remark: listed apart in the source
[6] = target: T3, human IL-12 receptor subunit beta-1 ectodomain (IL-12Rβ1, full ECD) (human, UniProt P42701-1 24-544); assay: ITC
[7] = target: T4, human IL-23 receptor ectodomain (IL-23R, full ECD, residues 1-317) (human, UniProt Q5VWK5-1 24-317); assay: SEC-MALLS
T4 sequence (looked up): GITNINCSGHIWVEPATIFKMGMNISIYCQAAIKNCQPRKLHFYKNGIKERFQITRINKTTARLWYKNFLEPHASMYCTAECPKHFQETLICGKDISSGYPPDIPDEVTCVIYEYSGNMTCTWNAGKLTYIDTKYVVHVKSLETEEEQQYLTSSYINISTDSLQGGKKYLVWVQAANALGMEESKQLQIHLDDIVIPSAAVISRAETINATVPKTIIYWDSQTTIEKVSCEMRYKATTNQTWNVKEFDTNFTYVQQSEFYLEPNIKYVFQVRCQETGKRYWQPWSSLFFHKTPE

[8] = target: T3, human IL-12 receptor subunit beta-1 …; assay: cross-linking
[9] = target: T4, human IL-23 receptor ectodomain …; assay: crystal structure
[10] = target: B8; assay: crystal structure

B1: Nanobody 37D5 (single domain VHH camelid antibody against human IL-23) (VHH)
VHH: EVQLVESGGGLVQPGGSLRLSCAASGFTLDYLAIGWFRQAPGKEREGVSCVSSSGQYTYYADSVKGRFTISRDNAESTVYLQMNSLKPEDTAVYYCATDPECYRVRGYYNGEYDYWGQGTQVTVSS
binding result [1]: binds

B2: Fab fragment of ustekinumab (Fab, V domains shown)
VH: EVQLVQSGAEVKKPGESLKISCKGSGYSFTTYWLGWVRQMPGKGLDWIGIMSPVDSDIRYSPSFQGQVTMSVDKSITTAYLQWNSLKASDTAMYYCARRRPGQGYFDFWGQGTLVTVSS
VL: DIQMTQSPSSLSASVGDRVTITCRASQGISSWLAWYQQKPEKAPKSLIYAASSLQSGVPSRFSGSGSGTDFTLTISSLQPEDFATYYCQQYNIYPYTFGQGTKLEIK
binding result [1]: binds

B5: Nanobody 22E11 (single domain VHH camelid antibody against human IL-23) (VHH)
VHH: EVQLVESGGGLVQAGGSLRLSCAASGRTFSWSAVGWFRQAPGKEREFVAAIRWSGGSPYYADSVKDRFTISRDNAKNTVYLQMNSLRPEDTAVYLCGETSLFPTSRGSHYDTWGQGTQVTVSS
binding result [4]: binds | binding result [5]: binds

B6: human interleukin-23 (IL-23), heterodimer of IL-23p19 and IL-12p40 (complex)
chain 1: RAVPGGSSPAWTQCQQLSQKLCTLAWSAHPLVGHMDLREEGDEETTNDVPHIQCGDGCDPQGLRDNSQFCLQRIHQGLIFYEKLLGSDIFTGEPSLLPDSPVGQLHASLLGLSQLLQPEGHHWETQQIPSLSPSQPWQRLLLRFKILRSLQAFVAVAARVFAHGAATLSP
chain 2: IWELKKDVYVVELDWYPDAPGEMVVLTCDTPEEDGITWTLDQSSEVLGSGKTLTIQVKEFGDAGQYTCHKGGEVLSHSLLLLHKKEDGIWSTDILKDQKEPKNKTFLRCEAKNYSGRFTCWWLTTISTDLTFSVKSSRGSSDPQGVTCGAATLSAERVRGDNKEYEYSVECQEDSACPAAEESLPIEVMVDAVHKLKYENYTSSFFIRDIIKPDPPKNLQLKPLKNSRQVEVSWEYPDTWSTPHSYFSLTFCVQVQGKSKREKKDRVFTDKTSATVICRKNASISVRAQDRYYSSSWSEWASVPCS
Kd [6]: 2000 nM | stoichiometry N [7]: 1

Binder: B8
binding result [8]: binds

Further lines, results first:

binding result [1]: binds
B3: Nanobody 124C4 (single domain VHH camelid antibody against human IL-23) (VHH)
VHH: EVQLVESGGGLVQPGGSLRLSCAASGFTLDDYAIAWFRQAPGKEREGVSGIDSGDGSAYYADSVKGRFTISSDNAKNTVYLQMNSLRPEDTAVYYCARVRTGWGLNAPDYAMDYWGKGTLVTVSS

binding result [2]: binds | binding result [3]: binds
B4: Fab fragment of briakinumab (ABT-874) (Fab, V domains shown)
VH: QVQLVESGGGVVQPGRSLRLSCAASGFTFSSYGMHWVRQAPGKGLEWVAFIRYDGSNKYYADSVKGRFTISRDNSKNTLYLQMNSLRAEDTAVYYCKTHGSHDNWGQGTMVTVSS
VL: QSVLTQPPSVSGAPGQRVTISCSGSRSNIGSNTVKWYQQLPGTAPKLLIYYNDQRPSGVPDRFSGSKSGTSASLAITGLQAEDEADYYCQSYDRYTHPALLFGTGTKVTVL

Kd [6]: 25 nM
B7: preformed human IL-23:IL-23R binary complex (complex)
chain 1: RAVPGGSSPAWTQCQQLSQKLCTLAWSAHPLVGHMDLREEGDEETTNDVPHIQCGDGCDPQGLRDNSQFCLQRIHQGLIFYEKLLGSDIFTGEPSLLPDSPVGQLHASLLGLSQLLQPEGHHWETQQIPSLSPSQPWQRLLLRFKILRSLQAFVAVAARVFAHGAATLSP
chain 2: IWELKKDVYVVELDWYPDAPGEMVVLTCDTPEEDGITWTLDQSSEVLGSGKTLTIQVKEFGDAGQYTCHKGGEVLSHSLLLLHKKEDGIWSTDILKDQKEPKNKTFLRCEAKNYSGRFTCWWLTTISTDLTFSVKSSRGSSDPQGVTCGAATLSAERVRGDNKEYEYSVECQEDSACPAAEESLPIEVMVDAVHKLKYENYTSSFFIRDIIKPDPPKNLQLKPLKNSRQVEVSWEYPDTWSTPHSYFSLTFCVQVQGKSKREKKDRVFTDKTSATVICRKNASISVRAQDRYYSSSWSEWASVPCS
chain 3: GITNINCSGHIWVEPATIFKMGMNISIYCQAAIKNCQPRKLHFYKNGIKERFQITRINKTTARLWYKNFLEPHASMYCTAECPKHFQETLICGKDISSGYPPDIPDEVTCVIYEYSGNMTCTWNAGKLTYIDTKYVVHVKSLETEEEQQYLTSSYINISTDSLQGGKKYLVWVQAANALGMEESKQLQIHLDDIVIPSAAVISRAETINATVPKTIIYWDSQTTIEKVSCEMRYKATTNQTWNVKEFDTNFTYVQQSEFYLEPNIKYVFQVRCQETGKRYWQPWSSLFFHKTPE

binding result [9]: binds | binding result [10]: binds
B9: human IL-23p19, the helical subunit of IL-23 (natural protein, UniProt Q9NPF7 20-189, looked up)
chain: RAVPGGSSPAWTQCQQLSQKLCTLAWSAHPLVGHMDLREEGDEETTNDVPHIQCGDGCDPQGLRDNSQFCLQRIHQGLIFYEKLLGSDIFTGEPSLLPDSPVGQLHASLLGLSQLLQPEGHHWETQQIPSLSPSQPWQRLLLRFKILRSLQAFVAVAARVFAHGAATLSP
